Where a chain is given by its changes, count along the chain named.
B1: unnamed (protein)
chain: QTNPYARGPNPTAASLEASAGPFTVRSFTVSRPSGYGAGTVYYPTNAGGTVGAIAIVPGYTARQSSIKWWGPRLASHGFVVITIDTNSTFDYPSSRSSQQMAALRQVASLNGDSSSPIYGKVDTARMGVMGHSMGGGASLRSAANNPSLKAAIPQAPWDSQTNFSSVTVPTLIFACENDSIAPVNSHALPIYDSMSRNAKQFLEINGGSHSCANSGNSNQALIGKKGVAWMKRFMDNDTRYSTFACENPNSTAVSDFRTANCSLEHHHHHH
B2: unnamed (protein)
chain: QTNPYARGPNPTAASLEASAGPFTVRSFTVSRPSGYGAGTVYYPTNAGGTVGAIAIVPGYTARQSSIKWWGPRLASHGFVVITIDTNSTLDQPESRSSQQMAALRQVASLNGTSSSPIYGKVDTARMGVMGWSMGGGGSLISAANNPSLKAAAPQAPWHSSTNFSSVTVPTLIFACENDSIAPVNSSALPIYDSMSRNAKQFLEINGGSHSCANSGNSNQALIGKKGVAWMKRFMDNDTRYSTFACENPNSTAVSDFRTANCSLEHHHHHH
B3: unnamed (protein)
chain: B2 chain with E94S, H159D, A253R
B4: unnamed (protein)
chain: B2 chain with R197Q, N206K
B5: unnamed (protein)
chain: MSNPYQRGPNPTRSALTADGPFSVATYTVSRLSVSGFGGGVIYYPTGTSLTFGGIAMSPGYTADASSLAWLGRRLASHGFVVLVINTNSRFDYPDSRASQLSAALNYLRTSSPSAVRARLDANRLAVAGHSMGGGGTLRIAEQNPSLKAAVPLTPWHTDKTFNTSVPVLIVGAEADTVAPVSQHAIPFYQNLPSTTPKVYVELCNASHIAPMSNNAAISVYTISWMKLWVDNDTRYRQFLCNVNDPALCDFRTNNRHCQLEHHHHHH
B6: unnamed (protein)
chain: SNPYQRGPNPTRSALTADGPFSVATYTVSRLSVSGFGGGVIYYPTGTSLTFGGIAMSPGYTADASSLAWLGRRLASHGFVVLVINTNSRFDYPDSRASQLSAALNYLRTSSPSAVRARLDANRLAVAGHSMGGGGTLRIAEQNPSLKAAVPLTPWHTDKTFNTSVPVLIVGAEADTVAPVSQHAIPFYQNLPSTTPKVYVELDNASHFAPNSNNAAISVYTISWMKLWVDNDTRYRQFLCNVNDPALSDFRTNNRHCQLEHHHHHH

Substrate: PET
Experiment: Proxy for plastic degradation [Released monomer concentration (HPLC/LC-MS) (MHET+TPA)]
[1] = pH 6.5, 30 °C, part of the chain shown
[2] = pH 6.5, 40 °C, part of the chain shown
[3] = pH 7, 30 °C, part of the chain shown
[4] = pH 7, 40 °C, part of the chain shown
[5] = pH 7.5, 30 °C, part of the chain shown
[6] = pH 7.5, 40 °C, part of the chain shown
[7] = pH 8, 30 °C, part of the chain shown
[8] = pH 8, 40 °C, part of the chain shown

Protein	Proxy for plastic degradation [1]	Proxy for plastic degradation [2]	Proxy for plastic degradation [3]	Proxy for plastic degradation [4]	Proxy for plastic degradation [5]	Proxy for plastic degradation [6]	Proxy for plastic degradation [7]	Proxy for plastic degradation [8]	Proxy for plastic degradation (pH 6.5, 30 °C)	Proxy for plastic degradation (pH 6.5, 40 °C)	Proxy for plastic degradation (pH 7, 30 °C)	Proxy for plastic degradation (pH 7, 40 °C)	Proxy for plastic degradation (pH 7.5, 30 °C)	Proxy for plastic degradation (pH 7.5, 40 °C)	Proxy for plastic degradation (pH 8, 30 °C)	Proxy for plastic degradation (pH 8, 40 °C)	also measured
B1	0.15 mM	0 mM	0.15 mM	0.3 mM	0.2 mM	1 mM	0.15 mM	2 mM	–	–	–	–	–	–	–	–	–
B2	0.6 mM	0.5 mM	1.2 mM	9 mM	2.3 mM	12 mM	2.9 mM	13 mM	–	–	–	–	–	–	–	–	–
B3	0.1 mM	0 mM	0.15 mM	0 mM	0.25 mM	0 mM	0.6 mM	0.2 mM	–	–	–	–	–	–	–	–	–
B4	0.7 mM	1 mM	1.5 mM	12 mM	2.9 mM	19 mM	3.6 mM	32 mM	–	–	–	–	–	–	–	–	Proxy for plastic degradation (pH 8, 1 h, part of the chain shown): 13.4 mM; Proxy for plastic degradation (pH 8, 2 h, part of the chain shown): 31.1 mM; Proxy for plastic degradation (pH 8, 3 h, part of the chain shown): 48.7 mM; Proxy for plastic degradation (pH 8, 4 h, part of the chain shown): 66.7 mM; Proxy for plastic degradation (pH 8, 5 h, part of the chain shown): 88 mM; Proxy for plastic degradation (pH 8, 6 h, part of the chain shown): 109 mM; Proxy for plastic degradation (pH 8, 7 h, part of the chain shown): 131 mM; Proxy for plastic degradation (pH 8, 8 h, part of the chain shown): 148 mM; Proxy for plastic degradation (pH 8, 9 h, part of the chain shown): 163 mM; Proxy for plastic degradation (pH 8, 10 h, part of the chain shown): 175 mM; Proxy for plastic degradation (pH 8, 11 h, part of the chain shown): 185 mM; Proxy for plastic degradation (pH 8, 12 h, part of the chain shown): 195 mM; Proxy for plastic degradation (pH 8, 13 h, part of the chain shown): 204 mM; Proxy for plastic degradation (pH 8, 13.5 h, part of the chain shown): 208 mM
B5	–	–	–	–	–	–	–	–	0.18 mM	0.8 mM	0.23 mM	2 mM	0.23 mM	3 mM	0.37 mM	4 mM	–
B6	–	–	–	–	–	–	–	–	0.17 mM	0.2 mM	0.2 mM	0.4 mM	0.22 mM	1.9 mM	0.25 mM	2.3 mM	–

— the PETadex activity labels (doi:10.1038/s41586-022-04599-z)
